pIC50, pKd: −log10 of the molar value.
How the values were obtained:
HLA-A*24:02 = assay: IEDB peptide-MHC binding, purified MHC/competitive/fluorescence; ≥ and ≤ were set here for values at or beyond the usual limits of such assays; conditions: source organism: Homo sapiens
HLA-B*44:02 = assay: as above; conditions: source organism: Homo sapiens
HLA-A*11:01 [1] = assay: IEDB peptide-MHC binding, purified MHC/competitive/radioactivity; ≥ and ≤ were set here for values at or beyond the usual limits of such assays; conditions: source organism: Rhinovirus C
HLA-C*05:01 = assay: IEDB peptide-MHC binding, purified MHC/direct/fluorescence; filed as Kd, often an IC50 or EC50 that approximates it; ≥ and ≤ were set here for values at or beyond the usual limits of such assays; conditions: source organism: Salmonella enterica subsp. enterica serovar Typhi str. CT18
HLA-B*15:01 = assay: IEDB peptide-MHC binding, purified MHC/competitive/fluorescence; filed as Kd, often an IC50 or EC50 that approximates it; ≥ and ≤ were set here for values at or beyond the usual limits of such assays; conditions: source organism: Salmonella enterica subsp. enterica serovar Typhi
HLA-B*15:17 = assay: as above; conditions: source organism: Salmonella enterica subsp. enterica serovar Typhi
HLA-A*02:01 = assay: as above; conditions: source organism: Salmonella enterica subsp. enterica serovar Typhi
HLA-B*58:01 = assay: as above; conditions: source organism: Salmonella enterica subsp. enterica serovar Typhi
HLA-B*38:01 = assay: as above; conditions: source organism: Salmonella enterica subsp. enterica serovar Typhi
HLA-B*48:01 = assay: as above; conditions: source organism: Salmonella enterica subsp. enterica serovar Typhi
HLA-B*15:09 = assay: as above; conditions: source organism: Salmonella enterica subsp. enterica serovar Typhi
HLA-B*40:01 = assay: as above; conditions: source organism: Salmonella enterica subsp. enterica serovar Typhi
HLA-A*11:01 [2] = assay: as above; conditions: source organism: Salmonella enterica subsp. enterica serovar Typhi
HLA-A*01:01 = assay: as above; conditions: source organism: Salmonella enterica subsp. enterica serovar Typhi
HLA-B*08:01 = assay: as above; conditions: source organism: Salmonella enterica subsp. enterica serovar Typhi
HLA-A*30:01 = assay: as above; conditions: source organism: Salmonella enterica subsp. enterica serovar Typhi
HLA-B*27:05 = assay: as above; conditions: source organism: Salmonella enterica subsp. enterica serovar Typhi
HLA-A*69:01 = assay: as above; conditions: source organism: Salmonella enterica subsp. enterica serovar Typhi
HLA-B*07:02 = assay: as above; conditions: source organism: Salmonella enterica subsp. enterica serovar Typhi
HLA-A*03:01 = assay: as above; conditions: source organism: Salmonella enterica subsp. enterica serovar Typhi
HLA-A*02:03 = assay: as above; conditions: source organism: Salmonella enterica subsp. enterica serovar Typhi
HLA-A*31:01 = assay: as above; conditions: source organism: Salmonella enterica subsp. enterica serovar Typhi
HLA-A*02:06 = assay: as above; conditions: source organism: Salmonella enterica subsp. enterica serovar Typhi
HLA-B*46:01 = assay: as above; conditions: source organism: Salmonella enterica subsp. enterica serovar Typhi

FYYNAFHW
pIC50 (HLA-A*24:02): 5.58
pIC50 (HLA-B*44:02): ≤ 4.70

KYFNINYYK
pIC50 (HLA-A*11:01 [1]): 6.70

LSEEANWAF
pKd (HLA-C*05:01): 8.30
pKd (HLA-B*15:01): 6.02
pKd (HLA-B*15:17): 7.63
pKd (HLA-A*02:01): ≤ 4.70
pKd (HLA-B*58:01): 6.30
pKd (HLA-B*38:01): ≤ 4.70
pKd (HLA-B*48:01): ≤ 4.70
pKd (HLA-B*15:09): ≤ 4.70
pKd (HLA-B*40:01): ≤ 4.70
pKd (HLA-A*11:01 [2]): ≤ 4.70
pKd (HLA-A*01:01): 7.37
pKd (HLA-B*08:01): ≤ 4.70
pKd (HLA-A*30:01): ≤ 4.70
pKd (HLA-B*27:05): ≤ 4.70
pKd (HLA-A*69:01): ≤ 4.70
pKd (HLA-B*07:02): ≤ 4.70
pKd (HLA-A*03:01): ≤ 4.70
pKd (HLA-A*02:03): ≤ 4.70
pKd (HLA-A*31:01): ≤ 4.70
pKd (HLA-A*02:06): 7.29
pKd (HLA-B*46:01): ≤ 4.70
